T1: mouse GPR49 (mouse, UniProt Q9Z1P4 22-907, limits assumed)
T1 construct: Expressed transiently in 293T cells; the cell lysate was analysed by Western blotting; also called mouse (M) GPR49
T1 sequence (looked up): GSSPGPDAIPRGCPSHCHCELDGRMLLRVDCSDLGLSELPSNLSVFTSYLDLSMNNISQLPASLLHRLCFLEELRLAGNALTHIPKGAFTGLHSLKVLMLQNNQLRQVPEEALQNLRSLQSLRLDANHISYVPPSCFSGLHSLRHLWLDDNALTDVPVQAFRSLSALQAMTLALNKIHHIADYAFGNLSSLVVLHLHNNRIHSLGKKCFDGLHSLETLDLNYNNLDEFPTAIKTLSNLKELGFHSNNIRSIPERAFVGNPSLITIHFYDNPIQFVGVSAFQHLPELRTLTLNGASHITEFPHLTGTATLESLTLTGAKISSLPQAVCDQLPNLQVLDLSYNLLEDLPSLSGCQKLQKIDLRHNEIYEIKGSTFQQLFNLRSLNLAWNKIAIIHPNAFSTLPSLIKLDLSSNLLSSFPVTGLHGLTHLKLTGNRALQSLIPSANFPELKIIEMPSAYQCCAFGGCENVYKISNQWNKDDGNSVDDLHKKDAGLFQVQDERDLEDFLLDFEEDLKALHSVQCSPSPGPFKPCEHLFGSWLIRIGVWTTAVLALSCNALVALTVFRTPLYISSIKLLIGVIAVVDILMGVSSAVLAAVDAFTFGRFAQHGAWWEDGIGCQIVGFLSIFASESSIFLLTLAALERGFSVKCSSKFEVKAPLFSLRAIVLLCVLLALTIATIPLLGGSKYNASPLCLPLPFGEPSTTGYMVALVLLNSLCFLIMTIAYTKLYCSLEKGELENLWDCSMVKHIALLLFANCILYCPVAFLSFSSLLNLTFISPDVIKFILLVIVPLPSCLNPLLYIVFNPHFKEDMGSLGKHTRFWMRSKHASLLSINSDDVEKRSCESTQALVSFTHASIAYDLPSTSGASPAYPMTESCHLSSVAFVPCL

T2: human GPR49 protein (human, UniProt O75473 22-907)
T2 construct: also called LGR5; GPR49 molecule
T2 sequence: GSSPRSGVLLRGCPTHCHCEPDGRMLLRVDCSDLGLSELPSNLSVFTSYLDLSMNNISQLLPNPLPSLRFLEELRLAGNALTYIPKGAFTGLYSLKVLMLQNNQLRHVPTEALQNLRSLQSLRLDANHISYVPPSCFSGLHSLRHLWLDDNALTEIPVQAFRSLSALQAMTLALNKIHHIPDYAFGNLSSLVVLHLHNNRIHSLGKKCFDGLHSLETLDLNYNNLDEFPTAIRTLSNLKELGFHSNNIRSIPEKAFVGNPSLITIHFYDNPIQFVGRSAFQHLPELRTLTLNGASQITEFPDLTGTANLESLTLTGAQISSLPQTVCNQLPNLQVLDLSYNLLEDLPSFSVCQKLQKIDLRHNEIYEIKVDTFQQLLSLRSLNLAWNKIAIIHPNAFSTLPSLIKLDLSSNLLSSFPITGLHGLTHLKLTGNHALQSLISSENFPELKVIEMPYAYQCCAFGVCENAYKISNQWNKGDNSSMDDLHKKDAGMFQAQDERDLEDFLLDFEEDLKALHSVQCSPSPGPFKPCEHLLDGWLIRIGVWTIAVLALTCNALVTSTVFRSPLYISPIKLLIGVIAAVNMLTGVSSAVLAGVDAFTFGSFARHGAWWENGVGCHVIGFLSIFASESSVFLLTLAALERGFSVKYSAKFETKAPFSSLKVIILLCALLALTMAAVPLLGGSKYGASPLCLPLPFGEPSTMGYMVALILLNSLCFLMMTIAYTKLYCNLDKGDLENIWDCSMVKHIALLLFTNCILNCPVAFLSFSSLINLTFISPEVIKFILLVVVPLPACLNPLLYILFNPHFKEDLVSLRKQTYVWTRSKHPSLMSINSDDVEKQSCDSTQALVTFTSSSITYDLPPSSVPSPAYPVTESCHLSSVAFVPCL

T3: HA-GPR49 (full-length human GPR49 with an HA-tag inserted at the N-terminus) (human, UniProt O75473 22-907)
T3 construct: Expressed in DG44 cells (line 2B10) and, inducibly with doxycycline, in 293FlpIn T-Rex cells (lines B2, B4); On whole cells in flow cytometry and cytotoxicity assays; as cell lysate in Western blotting and immunoprecipitation; also called human GPR49/DG44 cells (2B10); HA-GPR49-expressing DG44 cell line 2B10; not shown: HA-tag inserted at the N-terminus of GPR49
T3 sequence: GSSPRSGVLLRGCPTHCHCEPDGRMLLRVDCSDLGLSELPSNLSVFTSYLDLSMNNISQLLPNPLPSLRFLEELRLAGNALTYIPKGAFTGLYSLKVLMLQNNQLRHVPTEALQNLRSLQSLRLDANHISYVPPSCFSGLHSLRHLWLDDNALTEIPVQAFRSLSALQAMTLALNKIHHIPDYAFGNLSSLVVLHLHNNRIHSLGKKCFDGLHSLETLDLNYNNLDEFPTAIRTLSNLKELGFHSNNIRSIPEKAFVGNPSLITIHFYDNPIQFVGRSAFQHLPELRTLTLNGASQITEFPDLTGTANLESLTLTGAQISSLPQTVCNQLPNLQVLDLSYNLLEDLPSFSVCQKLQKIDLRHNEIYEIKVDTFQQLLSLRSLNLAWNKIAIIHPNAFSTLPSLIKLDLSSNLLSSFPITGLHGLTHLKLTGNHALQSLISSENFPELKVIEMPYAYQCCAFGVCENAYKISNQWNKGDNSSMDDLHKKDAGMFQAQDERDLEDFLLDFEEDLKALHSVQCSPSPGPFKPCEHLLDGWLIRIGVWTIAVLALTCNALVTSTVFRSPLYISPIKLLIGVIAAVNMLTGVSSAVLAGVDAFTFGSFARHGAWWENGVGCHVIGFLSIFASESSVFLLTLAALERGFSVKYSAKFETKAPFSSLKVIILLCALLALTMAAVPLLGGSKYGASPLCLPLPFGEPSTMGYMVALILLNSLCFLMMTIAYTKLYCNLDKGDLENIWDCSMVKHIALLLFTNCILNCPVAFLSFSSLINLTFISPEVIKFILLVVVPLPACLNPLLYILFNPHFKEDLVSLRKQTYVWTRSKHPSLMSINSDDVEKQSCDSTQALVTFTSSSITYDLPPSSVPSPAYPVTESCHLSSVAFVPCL


Columns and labels:
[1] = biological target: T1, mouse GPR49; assay: Western blotting
[2] = biological target: T2, human GPR49 protein; assay: Western blotting of LoVo cell lysate
[3] = biological target: T3, HA-GPR49 (full-length human GPR49 with …); assay: flow cytometry, hybridoma supernatant on 2B10 cells against parental DG44
Method: The binding to the human GPR49/DG44 cells (2B 10) was evaluated by flow cytometry using the obtained hybridomas. The cell lines expressing human GPR49 suspended in FACS buffer (2% FBS/PBS/0.05% NaN₃) were diluted to 1×10⁶ cells/mL with FACS buffer, and then aliquoted at 50 μL/well into a Falcon 353910 round-bottom 96-well plate. Hybridoma culture supernatant diluted to a suitable concentration was added to the wells containing the cells and reacted for 60 minutes on ice. Then, the cells were washed once with FACS buffer. Goat F(ab′)₂ fragment anti-mouse IgG(H+ L)-FITC (Beckman Coulter) was added to the wells containing the cells as a secondary antibody, and reacted for 30 minutes on ice. After reaction, the supernatant was removed by centrifugation, and then the cells suspended in 100 μL of FACS buffer were subjected to flow cytometry. A FACS Calibur (Becton Dickinson) was used for flow cytometry. The viable cell population was gated with a forward scatter-side scatter dot blot, an FL1 histogram was made of the cells contained in the population, and binding activity thereof was evaluated.
When the hybridoma supernatants were reacted with 2B 10 in which GPR49 is induced and expressed in DG44 cells and with the parental cell line DG44 respectively, hybridomas that specifically reacted with GPR49-expressing cells were obtained. The hybridomas from these wells were made into single clones by the limiting dilution method. The isotype of each antibody was analyzed using an IsoStrip™ mouse monoclonal antibody isotyping kit (Roche Diagnostics). As a result, 2J18-1N and 2J18-3 were IgM, and 2L7-8, 2L9-3, 2L10-19, 2L13-3, 2L15-12, 2L16-15, 2L18-15, 2L33-6, 2L34-5, 2L36-12, 2T4E-6, 2T9E1#14, 2T15E-2, 2T42E-4, 2T54-2, 2T65-3, 2T37-16, 2U1E-1, 2U2E-2, and 2U4E-11 were IgG1. Culturing of the hybridomas made into single clones was scaled up, and then the antibodies were purified from the culture supernatant using a protein G column in accordance with the manual. The IgM antibodies were purified using a protein L column in accordance with the manual. The purified antibodies were quantified by DC Protein Assay or such.

[4] = biological target: T2, human GPR49 protein; assay: flow cytometry, 10 ug/mL antibody on OVSAHO, Alexander and NUGC-4 cells
Method: The reactivity of 2T15E-2 antibody to human cancer cell lines were analyzed by flow cytometry. Human cancer cell lines suspended in a FACS buffer (2% FBS/PBS/0.05% NaN₃) were diluted to 1×10⁶ cells/mL with the FACS buffer, and the solutions were then dispensed into a Falcon 353910 round-bottom 96-well plate at 50 μL/well. 2T15E-2 antibody diluted to a concentration of 10 μg/mL was added, and this was reacted for 60 minutes on ice. Next, the cells were washed once with the FACS buffer. After adding Goat F(ab′)₂ fragment anti-mouse IgG (Fcγ)-FITC (Beckman Coulter) as a secondary antibody to the wells containing the cells, this was reacted for 30 minutes on ice. After the reaction, the supernatant was removed by centrifugation, and then the cells were suspended in 100 μL of FACS buffer containing propidium iodide (PI) and then subjected to flow cytometry. A FACS Calibur (Becton Dickinson) was used for the flow cytometry. The viable cell population was gated with a forward scatter-side scatter dot blot, an FL1 histogram was made of the cells contained in the population, and binding activity thereof was evaluated.
The peaks indicated with a solid line indicate the reactivity with cancer cell lines, and the shaded regions represent the peaks obtained when the reactions are carried out without antibodies. […]

[5] = biological target: T3, HA-GPR49 (full-length human GPR49 with …); assay: immunoprecipitation from 2B10 cell lysate, Western blot detection
Method: To confirm the presence of the 40-kDa and 60-kDa protein bands detected in Western blotting, immunoprecipitation experiments were carried out using GPR49 monoclonal antibodies. Cell lysate prepared by solubilizing HA-GPR49-expressing DG44 cell line 2B10 in NP40 lysis buffer (0.5% NP40, 50 mM Tris-HCl (pH7.5), 150 mM NaCl, protease inhibitor complete mini (Roche)) was used as the sample for immunoprecipitation. The amount of protein included in the cell lysate was quantified by DC Protein Assay using BSA as a standard. A solution containing 2 μg of antibody was added to 500 μL of cell lysate containing 100 μg of protein, and this was reacted at 4° C. for one hour. Additionally, 20 μL of Protein A/G Plus agarose (Santa Cruz) was added and this was reacted overnight. Agarose beads were centrifugated at 1,000×g for one minute, washed twice with 1 mL of PBS, and then antigens bound to the antibodies were eluted by adding 50 μL of 2×SDS-sample buffer and warming at 60° C. for 30 minutes. After centrifuging at 1,000×g for one minutes, 15 μL of the supernatant obtained was subjected to SDS-PAGE. […] As is seen in the lanes for the samples immunoprecipitated using 2L13-3 and 2L36-12, a 40-kDa band and a 60-kDa band in addition to the 100-kDa band could surely be detected using 2U1E-1 and 2U2E-2, respectively. […]

binding result [1]	binding result [2]	binding result [3]	binding result [4]	binding result [5]	Binder
binds	binds	binds			anti-GPR49 monoclonal antibody 2U1E-1 (antibody, mouse IgG1, V domains shown, Mouse IgG1 from hybridoma; light chain amplified with a kappa primer) VH: QVQLQQPGAELVEPGASVKLSCKASGYTFTNYYMYWVKQRPGQGLEWIGGINPNNGGTNFNEKFKSKATLTVDKSSSTAYMQLSSLTSEDSAVYYCTGIYYRYNWHFGVWGAGTTVTVSS VL: DVLMTQTPLSLPVSLGDQASISCRSSQTIVHSNGNTYLEWYLQKPGQSPKLLIYKVSNRFSGVPDRFSGSGSGTDFTLKIYRVEAEDLGIYYCFQGSHVPWTFGGGTKLEIK
		binds			anti-GPR49 monoclonal antibody 2L36-12 (antibody, mouse IgG1, V domains shown, Mouse IgG1 from hybridoma; light chain amplified with a kappa primer) VH: QVQLQQSGAELVRPGTSVKVSCKASGYDFTNYLIEWVNQRPGQGLEWIGVINPGSGGTNYNEKFKGKATLTADKSSSTAYMQLSSLTSDDSAVYLCARYSPYGNYFDYWGQGTTLTVSS VL: DIVMTQSHKFMSTSVGDRVSITCRASQDVGTAVAWYQQKPGQSPKLLIYWASTRHTGVPDRFTGSGSGTDFTLTINNVQSEDLADYFCQQYSSYPPTFGGGTKLEIK
binds	binds	binds			anti-GPR49 monoclonal antibody 2U2E-2 (antibody, mouse IgG1, V domains shown, Mouse IgG1 from hybridoma; light chain amplified with a kappa primer) VH: EVKLVESGGDLVKPGGSLKLSCAASGFIFSTYAMSWVRQIPEKRLEWVASISPDGNTFYPDSLKGRFTISRDNVRNILYLQMSSLRSEDTAMYYCAVTGTFAYWGQGTLVTVSG VL: DVLMTQTPLSLPVSLGDQASISCRSSQNILHSDGNTYLEWFLQKPGQSPKLLIFKISNRFPGVPDRFSGSGSGTDFTLKISRVEAEDLGVYYCFQSSHVPYTFGGGTKLEIK
		binds	binds		anti-GPR49 monoclonal antibody 2T15E-2 (antibody, mouse IgG1, V domains shown, Mouse IgG1 from hybridoma; light chain amplified with a kappa primer) VH: EVQLVESGGGLVKPGGSLKISCAASGFTSSNYAMSWVRQTPEKRLEWVATISSGGGYTYYPDSEKGRFAISRDNAKNTLYLQMSGLRSEDTAMYYCATQLYYRSHYYSMDYWGQGSSVTVSS VL: QIVLTQSPAIMSASPGEKVTMTCSASSSISYMHWYQQKSGTSPKRWIYDTSKLASGVPARFSGSGSGTSYSLTISSMEAEDAATYYCQQWHSKPATFGAGTKLELK
		binds			anti-GPR49 monoclonal antibody 2J18-1N (antibody, mouse IgM, V domains shown, Mouse IgM from hybridoma; light chain amplified with a kappa primer) VH: EVQLQQSGPELVKPGDSVKMSCKASGYTFTDYYMDWVKQSHGKSLEWIGYIYPNNGGTSYNQKFKGKATLTVDKSSSTAYMELHSLTSEDSAVYYCARPYYSNSFAYWGQGTLVTVSA VL: QIVLTQSPAIMSASPGEKVTMTCRASSSVSSSYLHWYQQKPGSSPKLWIYSTSNLASGVPARFSGSGSGTSYSLTISSVEAEDAATYYCQQYDSSPFTFGTGTKLEIK
				binds	anti-GPR49 monoclonal antibody 2L13-3 (antibody, mouse IgG1, V domains shown, Mouse IgG1 from hybridoma; light chain amplified with a kappa primer) VH: QVQLQQSGAELVRPGTSVKMSCKAAGYTFTNSWIGWVKQRPGHGLEWIGDIYPGGDYTNYNEKFKGKATLTADTSSSTAYMQLSSLTSEDAAIYYCTRGDGYFDYWGQGTTLTVSS VL: DIVMTQSHKFMSTSVGDRVSITCKASQDVSIDVAWYQQRPGQSPKLLIYSASYRYTGVPDRFTGSGSGTDFTFTVSSVQAEDLAVYYCQQHYSTPPTFGGGTKLEIK

Reference: patent publication US20110176995A1 (Chugai, published 2011)
